We go through four molecules from patent publication CN1652821A (dated 2005).

Where a chain is given by its changes, count along the chain named.

What is called Kd is the concentration at which binding is half-saturated.

One assay has as its target T1, LNCaP细胞上表达的PSMA (human, UniProt Q04609 1-750).
T1 construct: whole, on cells; Endogenous PSMA of LNCaP cells; also used for the LNCaP membrane-fraction ELISA; also called PSMA on LNCaP cells; LNCaP细胞膜
Description: Scatchard analysis, 111In-DOTA-labelled antibody binding to a fixed number of LNCaP cells.

In assay [1] the target is T2, 细菌表达的含有PSMA氨基酸134-437的融合蛋白 (human, UniProt Q04609 134-437).
T2 construct: Bacterially expressed fusion protein
T2 sequence (Q04609 134-437): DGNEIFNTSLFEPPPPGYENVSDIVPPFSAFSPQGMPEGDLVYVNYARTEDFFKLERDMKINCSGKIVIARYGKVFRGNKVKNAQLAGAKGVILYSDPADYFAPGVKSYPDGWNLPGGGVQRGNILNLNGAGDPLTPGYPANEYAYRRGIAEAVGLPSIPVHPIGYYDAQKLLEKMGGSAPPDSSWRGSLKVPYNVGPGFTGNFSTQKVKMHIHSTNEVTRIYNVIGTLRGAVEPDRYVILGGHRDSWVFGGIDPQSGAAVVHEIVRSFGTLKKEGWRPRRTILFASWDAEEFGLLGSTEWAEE
The assay is described as follows: solid-phase ELISA on bacterially expressed PSMA fragment fusion proteins.

For the next assay, the target named is T3, 细菌表达的含有PSMA氨基酸1-173的融合蛋白 (human, UniProt Q04609 1-173).
T3 construct: Bacterially expressed fusion protein
T3 sequence (Q04609 1-173): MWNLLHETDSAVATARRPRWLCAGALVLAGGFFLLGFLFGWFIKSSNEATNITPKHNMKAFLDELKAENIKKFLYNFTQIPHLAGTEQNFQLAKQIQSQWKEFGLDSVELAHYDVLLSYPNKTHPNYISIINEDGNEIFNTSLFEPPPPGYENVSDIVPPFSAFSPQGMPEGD
The assay is described as above.

Assay [2] concerns the target T4, 细菌表达的含有PSMA氨基酸438-750的融合蛋白 (human, UniProt Q04609 438-750).
T4 construct: range 438-750; Bacterially expressed fusion protein; also called PSMA 438-750 fusion protein
The description is as above.

T1 sequence (Q04609 whole entry): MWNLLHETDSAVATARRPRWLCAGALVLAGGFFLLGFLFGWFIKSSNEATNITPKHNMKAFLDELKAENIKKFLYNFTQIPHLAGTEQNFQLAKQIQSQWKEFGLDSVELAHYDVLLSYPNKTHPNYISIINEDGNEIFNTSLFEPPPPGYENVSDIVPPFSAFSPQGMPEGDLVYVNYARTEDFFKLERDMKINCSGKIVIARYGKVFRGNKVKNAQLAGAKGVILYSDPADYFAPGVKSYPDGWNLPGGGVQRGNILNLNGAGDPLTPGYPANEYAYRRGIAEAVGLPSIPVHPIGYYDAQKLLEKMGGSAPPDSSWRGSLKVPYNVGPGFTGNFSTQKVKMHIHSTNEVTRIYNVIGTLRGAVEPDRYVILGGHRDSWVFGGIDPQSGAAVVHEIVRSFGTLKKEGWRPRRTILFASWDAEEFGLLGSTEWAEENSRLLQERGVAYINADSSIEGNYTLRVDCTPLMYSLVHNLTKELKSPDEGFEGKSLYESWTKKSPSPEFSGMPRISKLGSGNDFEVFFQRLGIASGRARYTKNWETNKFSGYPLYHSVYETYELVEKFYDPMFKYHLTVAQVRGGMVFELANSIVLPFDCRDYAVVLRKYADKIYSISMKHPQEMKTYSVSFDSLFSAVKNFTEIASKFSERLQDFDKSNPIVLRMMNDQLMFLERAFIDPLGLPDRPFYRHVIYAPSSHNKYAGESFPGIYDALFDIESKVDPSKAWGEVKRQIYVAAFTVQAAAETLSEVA
T4 sequence (Q04609 438-750): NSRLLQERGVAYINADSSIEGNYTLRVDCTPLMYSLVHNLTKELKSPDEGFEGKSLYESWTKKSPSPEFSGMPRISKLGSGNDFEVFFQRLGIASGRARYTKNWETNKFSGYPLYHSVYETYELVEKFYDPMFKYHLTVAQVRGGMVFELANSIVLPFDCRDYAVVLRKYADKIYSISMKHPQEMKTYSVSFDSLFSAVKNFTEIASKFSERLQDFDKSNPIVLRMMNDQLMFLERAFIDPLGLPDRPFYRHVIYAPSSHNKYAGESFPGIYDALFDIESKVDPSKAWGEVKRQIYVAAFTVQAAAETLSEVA

B1: DOTA-标记的4A3 (antibody, IgG1, V domains shown)
VH: EVQLVQSGAEVKKPGESLKISCKGSGYSFTSYWIGWARQMPGKGLEWMGIIYPGDSDTRYSPSFQGQVTISADKSISTAYLQWSSLKASDTAMYYCSAANSSHWYFDLWGRGTLVTVSS
VL: EIVLTQSPATLSLSPGERATLSCRASQSVSSYLAWFQQKPGQAPRLLIYDASNRATGIPARFSGSGSGTDFTLTISSLEPEDFAVYYCQQRSNWLMYTFGQGTKLEIK
modifications: DOTA coupled through one carboxyl group to protein amino groups, sites not stated; 111In chelated in the Scatchard study
notes: 4A3 IgG1 kappa conjugated with DOTA; also called DOTA-4A3; 111 In-DOTA-标记抗体 4A3
Molecule B1 displayed a Kd in the assay with LNCaP细胞上表达的PSMA of 0.5 nM.

B2: 人单克隆抗体(HuMAb)4A3 (antibody, V domains shown)
VH: B1 VH
VL: B1 VL
notes: Human IgG1 kappa (γ1,κ) from a hybridoma of HuMAb mouse #17018
As to B2, the binding result (in assay [1]; with 细菌表达的含有PSMA氨基酸1-173的融合蛋白; in assay [2]) was “no binding” in each case.

B3: DOTA-标记的7F12 (antibody, IgG1, V domains shown)
VH: B1 VH with E1A, Y32F, S97A, A98T, H103F, Y105N
VL: B1 VL with F36Y
modifications: DOTA coupled through one carboxyl group to protein amino groups, sites not stated; 111In chelated in the Scatchard study
notes: 7F12 IgG1 kappa conjugated with DOTA; also called DOTA-7F12; 111 In-DOTA-标记抗体 7F12
In turn, B3 registered a Kd in the assay with LNCaP细胞上表达的PSMA of 0.5 nM.

B4: 人单克隆抗体(HuMAb)7F12 (antibody, V domains shown)
VH: B1 VH with E1A, Y32F, S97A, A98T, H103F, Y105N
VL: B1 VL with F36Y
notes: as for B2
Take B4: the binding result (in assay [1]; with 细菌表达的含有PSMA氨基酸1-173的融合蛋白; in assay [2]) was “no binding” each time.
